Reference: patent US8236925 (UNIVERSITY OF MINNESOTA, dated 2012)

Biological target: the molecule itself

B1: E. coli dihydrofolate reductase (DHFR) (enzyme)
chain: MISLIAALAVDRVIGMENAMPWNLPADLAWFKRNTLNKPVIMGRHTWESIGRPLPGRKNIILSSQPGTDDRVTWVKSVDEAIAACGDVPEIMVIGGGRVYEQFLPKAQKLYLTHIDAEVEGDTHFPDYEPDDWESVFSEFHDADAQNSHSYCFEILERR
selectivity of dimerization for E. coli DHFR relative to mouse DHFR: > 1e+07
ΔG of favorable protein-protein interactions: ≥ -3.1 kcal/mol
